Results on four variants are retold here after IntAct's records for PubMed 12796778.

First the molecules themselves.
B1: Nuclear distribution protein nudE-like 1 (Mus musculus), Q9ERR1 (parent)
chain: MDGEDIPDFSSLKEETAYWKELSLKYKQSFQEARDELVEFQEGSRELEAELEAQLVQAEQRNRDLQADNQRLKYEVEALKEKLEHQYAQSYKQVSVLEDDLSQTRAIKEQLHKYVRELEQANDDLERAKRATIVSLEDFEQRLNQAIERNAFLESELDEKESLLVSVQRLKDEARDLRQELAVRERQQEVTRKSAPSSPTLDCEKMDSAVQASLSLPATPVGKGTENSFPSPKAIPNGFGTSPLTPSARISALNIVGDLLRKVGALESKLAACRNFAKDQASRKSYVPGSVNCGVMNSNGPECPRSGRATFFHKGAVNGFDPAPPPPGLGSSRPSSAPGMLPLSV

The test covers variants of B1. The note with it: with 1433e_mouse Ywhae.
MDGEDIPDFSSLKEETAYWKELSLKYKQSFQEARDELVEFQEGSRELEAELEAQLVQAEQRNRDLQADNQRLKYEVEALKEKLEHQYAQSYKQVSVLEDDLSQTRAIKEQLHKYVRELEQANDDLERAKRATIVSLEDFEQRLNQAIERNAFLESELDEKESLLVSVQRLKDEARDLRQELAVRERQQEVTRKSAPSSPTLDCEKMDSAVQASLSLPAAPVGKGTENSFPSPKAIPNGFGTSPLTPSARISALNIVGDLLRKVGALESKLAACRNFAKDQASRKSYVPGSVNCGVMNSNGPECPRSGRATFFHKGAVNGFDPAPPPPGLGSSRPSSAPGMLPLSV [T219A]: the “effect of a mutation on the interaction” value is reported as “decreasing interaction strength”.

In the case of MDGEDIPDFSSLKEETAYWKELSLKYKQSFQEARDELVEFQEGSRELEAELEAQLVQAEQRNRDLQADNQRLKYEVEALKEKLEHQYAQSYKQVSVLEDDLSQTRAIKEQLHKYVRELEQANDDLERAKRATIVSLEDFEQRLNQAIERNAFLESELDEKESLLVSVQRLKDEARDLRQELAVRERQQEVTRKSAPSAPTLDCEKMDSAVQASLSLPATPVGKGTENSFPSPKAIPNGFGTSPLTPSARISALNIVGDLLRKVGALESKLAACRNFAKDQASRKSYVPGSVNCGVMNSNGPECPRSGRATFFHKGAVNGFDPAPPPPGLGSSRPSSAPGMLPLSV [S198A], the “effect of a mutation on the interaction” value was “decreasing interaction strength”.

With MDGEDIPDFSSLKEETAYWKELSLKYKQSFQEARDELVEFQEGSRELEAELEAQLVQAEQRNRDLQADNQRLKYEVEALKEKLEHQYAQSYKQVSVLEDDLSQTRAIKEQLHKYVRELEQANDDLERAKRATIVSLEDFEQRLNQAIERNAFLESELDEKESLLVSVQRLKDEARDLRQELAVRERQQEVTRKSAPSAPTLDCEKMDSAVQASLSLPAAPVGKGTENSFPAPKAIPNGFGTSPLTPSARISALNIVGDLLRKVGALESKLAACRNFAKDQASRKSYVPGSVNCGVMNSNGPECPRSGRATFFHKGAVNGFDPAPPPPGLGSSRPSSAPGMLPLSV [S198A;T219A;S231A], the “effect of a mutation on the interaction” value was “disrupting interaction strength”.

Take MDGEDIPDFSSLKEETAYWKELSLKYKQSFQEARDELVEFQEGSRELEAELEAQLVQAEQRNRDLQADNQRLKYEVEALKEKLEHQYAQSYKQVSVLEDDLSQTRAIKEQLHKYVRELEQANDDLERAKRATIVSLEDFEQRLNQAIERNAFLESELDEKESLLVSVQRLKDEARDLRQELAVRERQQEVTRKSAPSSPTLDCEKMDSAVQASLSLPATPVGKGTENSFPAPKAIPNGFGTSPLTPSARISALNIVGDLLRKVGALESKLAACRNFAKDQASRKSYVPGSVNCGVMNSNGPECPRSGRATFFHKGAVNGFDPAPPPPGLGSSRPSSAPGMLPLSV [S231A]: the “effect of a mutation on the interaction” value is listed as “decreasing interaction strength”.
